Laboratory results: article PMC3615900

Key:
Conditions in all cases: reference: wild type; sites S248
V5-14-3-3β = V5-14-3-3β (UniProt P31946); assay: co-IP with αV5, blot αFlag
14-3-3β [1] = molecular target: 14-3-3β (UniProt P31946); assay: Flag-Rubicon complex purification, immunoblot
14-3-3β [2] = molecular target: 14-3-3β (UniProt Q9CQV8); assay: co-IP with αFlag, blot α14-3-3β

- binding against the reference (V5-14-3-3β): lost
- binding against the reference (14-3-3β [1]): lost
- binding against the reference (14-3-3β [2]): lost
Substance: Rubicon (from UniProt Q92622) S248A
